From patent publication EP4714974A1

What was measured:
[1] = molecular target: human GPRC5D (human) (UniProt Q9NZD1); assay: flow cytometry on NCI-H929 cells (negative control)
[2] = molecular target: cynomolgus monkey GPRC5D (cynomolgus monkey); assay: flow cytometry on cynomolgus monkey GPRC5D-CHOK1 cells (negative control)
[3] = molecular target: human GPRC5D (human) (UniProt Q9NZD1); assay: flow cytometry on human GPRC5D-CHOK1 cells (negative control)
[4] = molecular target: human GPRC5D (human) (UniProt Q9NZD1); assay: as above; remark: listed apart in the source

Chain of human GPRC5D (human) (Q9NZD1 whole entry): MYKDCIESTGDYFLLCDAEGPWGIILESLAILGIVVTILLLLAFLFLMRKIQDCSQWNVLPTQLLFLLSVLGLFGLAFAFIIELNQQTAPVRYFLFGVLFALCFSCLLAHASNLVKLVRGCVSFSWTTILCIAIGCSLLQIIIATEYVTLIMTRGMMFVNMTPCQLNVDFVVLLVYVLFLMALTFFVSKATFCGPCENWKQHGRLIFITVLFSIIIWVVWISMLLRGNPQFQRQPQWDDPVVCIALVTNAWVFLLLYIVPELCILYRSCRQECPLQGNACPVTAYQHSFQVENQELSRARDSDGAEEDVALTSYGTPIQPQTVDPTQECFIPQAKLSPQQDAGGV

Top mean fluorescence intensity (Top MFI) [1]: 165 MFI
Top mean fluorescence intensity (Top MFI) [2]: 2040 MFI
Top mean fluorescence intensity (Top MFI) [3]: 51 MFI
Top mean fluorescence intensity (Top MFI) [4]: 1610 MFI
Substance: IgG1 AA (negative control, purchased from Biointron, Cat. No. B109802) (antibody)
